The record followed here is article PMC8096214.

The target of series [1] is T1, MgR D284A (RNase R, catalytically inactive) (Mycoplasma genitalium, UniProt P47350 1-725, D284A).
T1 sequence: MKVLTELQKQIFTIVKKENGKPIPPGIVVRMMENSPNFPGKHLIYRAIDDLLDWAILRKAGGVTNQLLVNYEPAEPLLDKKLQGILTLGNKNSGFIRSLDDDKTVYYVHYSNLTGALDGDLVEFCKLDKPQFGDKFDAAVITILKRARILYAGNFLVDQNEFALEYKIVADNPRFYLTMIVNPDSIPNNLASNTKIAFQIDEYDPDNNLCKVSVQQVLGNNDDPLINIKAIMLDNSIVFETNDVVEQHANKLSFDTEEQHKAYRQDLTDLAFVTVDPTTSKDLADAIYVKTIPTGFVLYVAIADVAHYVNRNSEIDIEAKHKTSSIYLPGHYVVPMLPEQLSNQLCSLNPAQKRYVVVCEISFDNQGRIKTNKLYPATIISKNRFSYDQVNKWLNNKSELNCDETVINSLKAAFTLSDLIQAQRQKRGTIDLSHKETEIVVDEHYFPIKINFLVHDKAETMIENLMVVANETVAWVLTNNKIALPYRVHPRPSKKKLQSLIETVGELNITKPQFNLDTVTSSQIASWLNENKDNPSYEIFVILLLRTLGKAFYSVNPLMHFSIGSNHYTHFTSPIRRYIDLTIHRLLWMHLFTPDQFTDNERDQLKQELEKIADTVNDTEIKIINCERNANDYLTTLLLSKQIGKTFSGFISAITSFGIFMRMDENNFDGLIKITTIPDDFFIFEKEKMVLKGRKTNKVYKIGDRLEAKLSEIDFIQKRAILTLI
Briefly: crystal structure.

The target of series [2] is T1, MgR D284A (RNase R, catalytically …). Briefly: fluorescence polarization.
Series [3] shares this target. Kind of series: crystal structure. This is another data set of the same source.

Where two headings read alike, the source gives them in different places.

B1: 4-nt 2'-O-methylated oligo rA (AAAmeA) (ssRNA)
RNA: AAAA
modifications: 2'-O-methyl at A3 ('me' read as suffix)
In the case of B1, the binding result in series [1] was “binds”.

B2: 24-nt ssRNA, unmethylated (ssRNA)
RNA: CAAACAAAACCGUGUAAAAACAAA
Consider B2, for which the dissociation constant Kd in series [2] came out at 6.62 ± 0.7 nM.

B3: 24-nt ssRNA, 2'-O-methylated (ssRNA)
RNA: CAAACAAAACCGUGUAAAAACAAA
modifications: 2'-O-methyl at G12, G14, A23 ('me' read as suffix, as in the rA15 30-mer)
In series [2], B3 came in with a Kd of 6.63 ± 0.69 nM.

B4: 6-bp dsRNA with 7-nt 3' overhang (dsRNA)
RNA 1: CCGUGUAAAAAAA
RNA 2: ACACGG
B4: the binding result in series [3] is “binds”.
